Reference: US20190375839A1 (JIANGSU HENGRUI MEDICINE, published 2019)
Substitutions are numbered along the chain they refer to. Numbers in names are those of the source.

B1: h1701-009NNA (antibody, human IgG4 S228P, kappa, V domains shown)
VH: QVQLVQSGAEVKKPGASVKVSCKASGYTFTDYYMNWVRQAPGQGLEWMGDIIPNNAGSKYNQKFKDRVTMTTDTSTSTAYMELRSLRSDDTAVYYCATWGYGSSYRWFDYWGQGTLVTVSS
VL: DIQMTQSPSSLSASVGDRVTITCLASQPIGIWLAWYQQKPGKAPKLLIYAATSLADGVPSRFSGSGSGTDFTFTISSLQPEDIATYYCQQLYSSPWTFGGGTKVEIKR
notes: HCDR2 point-mutation variant of h1701-009 (NNG to NNA); IgG4 (S228P)/kappa
B2: h1701-009NEG (antibody, human IgG4 S228P, kappa, V domains shown)
VH: B1 VH with N55E, A56G
VL: B1 VL
notes: HCDR2 point-mutation variant of h1701-009 (NNG to NEG); IgG4 (S228P)/kappa
B3: h1701-009NAG (antibody, human IgG4 S228P, kappa, V domains shown)
VH: B1 VH with N55A, A56G
VL: B1 VL
notes: HCDR2 point-mutation variant of h1701-009 (NNG to NAG); IgG4 (S228P)/kappa
B4: h1701-009NMG (antibody, human IgG4 S228P, kappa, V domains shown)
VH: B1 VH with N55M, A56G
VL: B1 VL
notes: HCDR2 point-mutation variant of h1701-009 (NNG to NMG); IgG4 (S228P)/kappa
B5: h1701-009NVG (antibody, human IgG4 S228P, kappa, V domains shown)
VH: B1 VH with N55V, A56G
VL: B1 VL
notes: HCDR2 point-mutation variant of h1701-009 (NNG to NVG); IgG4 (S228P)/kappa
B6: h1701-009NMA (antibody, human IgG4 S228P, kappa, V domains shown)
VH: B1 VH with N55M
VL: B1 VL
notes: HCDR2 point-mutation variant of h1701-009 (NNG to NMA); IgG4 (S228P)/kappa
B7: h1701-009NHG (antibody, human IgG4 S228P, kappa, V domains shown)
VH: B1 VH with N55H, A56G
VL: B1 VL
notes: HCDR2 point-mutation variant of h1701-009 (NNG to NHG); IgG4 (S228P)/kappa
B8: h1701-009NHA (antibody, human IgG4 S228P, kappa, V domains shown)
VH: B1 VH with N55H
VL: B1 VL
notes: HCDR2 point-mutation variant of h1701-009 (NNG to NHA); IgG4 (S228P)/kappa
B9: h1701-009NKG (antibody, human IgG4 S228P, kappa, V domains shown)
VH: B1 VH with N55K, A56G
VL: B1 VL
notes: HCDR2 point-mutation variant of h1701-009 (NNG to NKG); IgG4 (S228P)/kappa
B10: h1701-009NLG (antibody, human IgG4 S228P, kappa, V domains shown)
VH: B1 VH with N55L, A56G
VL: B1 VL
notes: HCDR2 point-mutation variant of h1701-009 (NNG to NLG); IgG4 (S228P)/kappa
B11: h1701-009NEA (antibody, human IgG4 S228P, kappa, V domains shown)
VH: B1 VH with N55E
VL: B1 VL
notes: HCDR2 point-mutation variant of h1701-009 (NNG to NEA); IgG4 (S228P)/kappa
B12: h1701-010 (antibody, human IgG4 S228P, kappa, V domains shown)
VH: B1 VH with A56G
VL: B1 VL with A43S
notes: Humanized IgG4 (S228P)/kappa
B13: h1701-016 (antibody, human IgG4 S228P, kappa, V domains shown)
VH: B1 VH with M48I, G49A, A56G, V68A, M70L
VL: B1 VL with A43S
notes: Humanized IgG4 (S228P)/kappa
B14: h1799-005 (antibody, human IgG4 S228P, kappa)
heavy: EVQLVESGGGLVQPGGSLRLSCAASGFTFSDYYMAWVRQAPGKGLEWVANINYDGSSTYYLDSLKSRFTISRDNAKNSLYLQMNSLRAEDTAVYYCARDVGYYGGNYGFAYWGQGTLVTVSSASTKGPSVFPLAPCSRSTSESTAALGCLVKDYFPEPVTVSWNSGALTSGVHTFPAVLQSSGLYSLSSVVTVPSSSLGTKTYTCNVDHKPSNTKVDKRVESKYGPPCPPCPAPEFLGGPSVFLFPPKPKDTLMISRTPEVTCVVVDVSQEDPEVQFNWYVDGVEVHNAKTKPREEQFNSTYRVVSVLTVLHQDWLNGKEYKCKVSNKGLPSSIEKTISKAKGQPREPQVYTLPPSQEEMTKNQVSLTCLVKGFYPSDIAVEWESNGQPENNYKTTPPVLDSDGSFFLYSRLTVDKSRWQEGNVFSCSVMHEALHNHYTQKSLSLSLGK
light: DIQMTQSPSSLSASVGDRVTITCRASDNIYSYLAWYQQKPGKAPKLLIYNAKTLAEGVPSRFSGSGSGTDFTLTISSLQPEDFATYYCQQHYGSPLTFGQGTKLEIKRTVAAPSVFIFPPSDEQLKSGTASVVCLLNNFYPREAKVQWKVDNALQSGNSQESVTEQDSKDSTYSLSSTLTLSKADYEKHKVYACEVTHQGLSSPVTKSFNRGEC
notes: Humanized IgG4 (S228P)/kappa
B15: Ch1799 (antibody, human IgG4 S228P, kappa, V domains shown)
VH: EVKLVESEGGLVQPGSSMKLSCTASGFTFSDYYMAWVRQVPEKGLEWVANINYDGSSTYYLDSLKSRFIISRDNAKNILYLQMNSLKSDDTATYYCARDVGYYGGNYGFAYWGQGTLVTVSA
VL: DIQMTQSPASLSASVGETVTITCRASDNIYSYLAWYQQKQGKSPQLLVYNAKTLAEGVPSRFSGSGSGTQFSLKINSLQPEDFGSYYCQQHYGSPLTFGAGTKLELKR
B16: Ch1701 (antibody, human IgG4 S228P, kappa, V domains shown)
VH: EVQLQQSGPELVKPGASVKISCKASGYTFTDYYMNWVKQSHGKSLEWIADIIPNNGGSKYNQKFKDKATLTVDKSSSTAYMELRSLTSEDSAVYYCATWGYGSSYRWFDYWGQGTLVSVSA
VL: DIQMTQSPASQSASLGESVTITCLASQPIGIWLAWYQQKPGKSPQLLIYAATSLADGVPSRFSGSGSGTKFSFKISSLQAEDFVSYYCQQLYSSPWTFGGGTKLEIKR
B17: h1701-005 (antibody, human IgG4 S228P, kappa, V domains shown)
VH: B1 VH with A56G, T98R
VL: B1 VL
notes: Humanized IgG4 (S228P)/kappa
B18: h1701-011 (antibody, human IgG4 S228P, kappa, V domains shown)
VH: B1 VH with M48I, A56G
VL: B1 VL
notes: Humanized IgG4 (S228P)/kappa
B19: h1701-014 (antibody, human IgG4 S228P, kappa, V domains shown)
VH: B1 VH with R38K, M48I, A56G, D89E
VL: B1 VL with A43S
notes: Humanized IgG4 (S228P)/kappa
B20: h1701-006 (antibody, human IgG4 S228P, kappa, V domains shown)
VH: B1 VH with A56G, T98R
VL: B1 VL with A43S
notes: Humanized IgG4 (S228P)/kappa
B21: h1701-013 (antibody, human IgG4 S228P, kappa, V domains shown)
VH: B1 VH with R38K, M48I, A56G, D89E
VL: B1 VL
notes: Humanized IgG4 (S228P)/kappa
B22: h1701-015 (antibody, human IgG4 S228P, kappa, V domains shown)
VH: B1 VH with M48I, G49A, A56G, V68A, M70L
VL: B1 VL
notes: Humanized IgG4 (S228P)/kappa
B23: h1701-012 (antibody, human IgG4 S228P, kappa, V domains shown)
VH: B1 VH with M48I, A56G
VL: B1 VL with A43S
notes: Humanized IgG4 (S228P)/kappa
B24: h1701-008 (antibody, human IgG4 S228P, kappa, V domains shown)
VH: B1 VH with M48I, A56G, T98R
VL: B1 VL with A43S
notes: Humanized IgG4 (S228P)/kappa
B25: h1701-017 (antibody, human IgG4 S228P, kappa, V domains shown)
VH: B1 VH with R38K, M48I, G49A, A56G, V68A, M70L, D89E
VL: B1 VL
notes: Humanized IgG4 (S228P)/kappa
B26: h1701-018 (antibody, human IgG4 S228P, kappa, V domains shown)
VH: B1 VH with R38K, M48I, G49A, A56G, V68A, M70L, D89E
VL: B1 VL with A43S
notes: Humanized IgG4 (S228P)/kappa
B27: h1799-012 (antibody, human IgG4 S228P, kappa)
heavy: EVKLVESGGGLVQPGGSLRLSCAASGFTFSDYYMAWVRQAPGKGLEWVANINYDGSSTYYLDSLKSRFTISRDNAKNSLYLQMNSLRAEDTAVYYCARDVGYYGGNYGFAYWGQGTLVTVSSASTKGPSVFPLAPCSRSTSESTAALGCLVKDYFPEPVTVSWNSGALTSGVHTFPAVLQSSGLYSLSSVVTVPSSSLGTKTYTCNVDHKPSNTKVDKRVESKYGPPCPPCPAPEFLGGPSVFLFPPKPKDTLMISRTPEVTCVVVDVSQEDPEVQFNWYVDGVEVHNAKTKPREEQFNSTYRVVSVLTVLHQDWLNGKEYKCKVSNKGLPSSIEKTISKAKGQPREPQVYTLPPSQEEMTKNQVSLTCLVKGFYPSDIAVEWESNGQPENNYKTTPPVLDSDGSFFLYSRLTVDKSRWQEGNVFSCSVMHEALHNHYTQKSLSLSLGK
light: B14 light with K45Q, I48V
notes: Humanized IgG4 (S228P)/kappa
B28: h1799-007 (antibody, human IgG4 S228P, kappa)
heavy: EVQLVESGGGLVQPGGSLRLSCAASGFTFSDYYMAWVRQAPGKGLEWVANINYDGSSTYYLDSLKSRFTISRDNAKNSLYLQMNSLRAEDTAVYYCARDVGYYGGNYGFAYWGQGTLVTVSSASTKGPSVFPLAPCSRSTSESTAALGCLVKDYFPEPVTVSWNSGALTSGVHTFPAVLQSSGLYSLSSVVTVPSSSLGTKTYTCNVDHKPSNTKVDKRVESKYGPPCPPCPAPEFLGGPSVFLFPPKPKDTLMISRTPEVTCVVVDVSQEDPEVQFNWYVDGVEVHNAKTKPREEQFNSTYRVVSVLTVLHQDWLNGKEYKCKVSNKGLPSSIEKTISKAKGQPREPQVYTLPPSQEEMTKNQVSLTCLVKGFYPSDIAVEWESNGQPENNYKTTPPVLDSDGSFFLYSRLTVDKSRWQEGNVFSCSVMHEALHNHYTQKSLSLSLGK
light: B14 light with K45Q, I48V
notes: Humanized IgG4 (S228P)/kappa
B29: h1799-019 (antibody, human IgG4 S228P, kappa, V domains shown)
VH: EVKLVESGGGLVQPGGSLRLSCAASGFTFSDYYMAWVRQAPGKGLEWVANINYDGSSTYYLDSLKSRFTISRDNAKNSLYLQMNSLKAEDTAVYYCARDVGYYGGNYGFAYWGQGTLVTVSS
VL: DIQMTQSPSSLSASVGDRVTITCRASDNIYSYLAWYQQKPGKSPQLLVYNAKTLAEGVPSRFSGSGSGTDFTLTISSLQPEDFASYYCQQHYGSPLTFGQGTKLEIKR
notes: Humanized IgG4 (S228P)/kappa
B30: h1799-016 (antibody, human IgG4 S228P, kappa, V domains shown)
VH: B29 VH
VL: B29 VL with S43A, Q45K, S85T
notes: Humanized IgG4 (S228P)/kappa
B31: h1799-009 (antibody, human IgG4 S228P, kappa)
heavy: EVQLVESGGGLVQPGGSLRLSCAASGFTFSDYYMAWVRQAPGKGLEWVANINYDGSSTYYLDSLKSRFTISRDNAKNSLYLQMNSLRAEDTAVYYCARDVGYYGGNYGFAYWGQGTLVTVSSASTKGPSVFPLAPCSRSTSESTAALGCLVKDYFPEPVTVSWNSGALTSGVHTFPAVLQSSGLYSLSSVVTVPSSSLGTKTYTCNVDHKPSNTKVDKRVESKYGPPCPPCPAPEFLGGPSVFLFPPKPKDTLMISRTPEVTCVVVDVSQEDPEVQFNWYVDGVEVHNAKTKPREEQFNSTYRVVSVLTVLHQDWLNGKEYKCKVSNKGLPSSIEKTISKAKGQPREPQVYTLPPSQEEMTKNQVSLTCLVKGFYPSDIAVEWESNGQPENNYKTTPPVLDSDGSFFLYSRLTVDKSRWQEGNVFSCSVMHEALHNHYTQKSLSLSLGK
light: B14 light with A43S, K45Q, I48V, T85S
notes: Humanized IgG4 (S228P)/kappa
B32: h1799-014 (antibody, human IgG4 S228P, kappa)
heavy: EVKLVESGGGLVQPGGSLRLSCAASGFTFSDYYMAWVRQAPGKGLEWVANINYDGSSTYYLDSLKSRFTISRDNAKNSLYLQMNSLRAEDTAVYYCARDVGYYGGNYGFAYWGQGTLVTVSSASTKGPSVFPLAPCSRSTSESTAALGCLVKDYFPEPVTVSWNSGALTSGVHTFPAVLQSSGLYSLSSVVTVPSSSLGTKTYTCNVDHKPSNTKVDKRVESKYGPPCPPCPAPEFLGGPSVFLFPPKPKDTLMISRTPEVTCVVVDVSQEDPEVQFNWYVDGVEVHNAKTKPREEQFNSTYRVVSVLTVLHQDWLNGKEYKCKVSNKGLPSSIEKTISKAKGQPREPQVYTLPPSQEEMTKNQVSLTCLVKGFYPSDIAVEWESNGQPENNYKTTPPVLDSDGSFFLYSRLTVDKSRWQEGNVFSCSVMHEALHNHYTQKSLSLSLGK
light: B14 light with A43S, K45Q, I48V, T85S
notes: Humanized IgG4 (S228P)/kappa
B33: h1799-013 (antibody, human IgG4 S228P, kappa)
heavy: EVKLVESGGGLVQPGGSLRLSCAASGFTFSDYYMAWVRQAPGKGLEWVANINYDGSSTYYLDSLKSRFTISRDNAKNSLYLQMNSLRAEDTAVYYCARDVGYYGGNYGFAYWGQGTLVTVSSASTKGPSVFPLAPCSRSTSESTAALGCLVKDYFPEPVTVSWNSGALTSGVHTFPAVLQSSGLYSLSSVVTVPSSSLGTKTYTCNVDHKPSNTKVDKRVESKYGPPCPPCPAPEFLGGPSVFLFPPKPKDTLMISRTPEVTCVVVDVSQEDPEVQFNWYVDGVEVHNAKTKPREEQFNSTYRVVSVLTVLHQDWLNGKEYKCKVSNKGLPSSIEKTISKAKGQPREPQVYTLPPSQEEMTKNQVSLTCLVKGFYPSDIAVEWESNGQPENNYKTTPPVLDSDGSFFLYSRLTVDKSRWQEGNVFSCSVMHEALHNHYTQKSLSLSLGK
light: B14 light with A43S, K45Q, I48V
notes: Humanized IgG4 (S228P)/kappa
B34: h1799-017 (antibody, human IgG4 S228P, kappa, V domains shown)
VH: B29 VH
VL: B29 VL with S43A, S85T
notes: Humanized IgG4 (S228P)/kappa
B35: h1799-018 (antibody, human IgG4 S228P, kappa, V domains shown)
VH: B29 VH
VL: B29 VL with S85T
notes: Humanized IgG4 (S228P)/kappa
B36: h1799-011 (antibody, human IgG4 S228P, kappa)
heavy: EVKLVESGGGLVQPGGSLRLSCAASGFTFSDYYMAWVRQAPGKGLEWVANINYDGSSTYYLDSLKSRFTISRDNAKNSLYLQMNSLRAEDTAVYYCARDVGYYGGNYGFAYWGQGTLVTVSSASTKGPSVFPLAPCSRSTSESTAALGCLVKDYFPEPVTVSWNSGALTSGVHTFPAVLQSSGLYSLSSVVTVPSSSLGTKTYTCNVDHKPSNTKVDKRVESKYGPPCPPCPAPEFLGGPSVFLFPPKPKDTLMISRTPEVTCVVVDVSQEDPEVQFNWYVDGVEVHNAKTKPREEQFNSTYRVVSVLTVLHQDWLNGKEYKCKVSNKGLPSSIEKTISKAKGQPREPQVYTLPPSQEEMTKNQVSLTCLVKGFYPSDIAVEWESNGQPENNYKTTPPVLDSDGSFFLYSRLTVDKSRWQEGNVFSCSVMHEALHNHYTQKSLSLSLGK
light: B14 light with I48V
notes: Humanized IgG4 (S228P)/kappa
B37: h1799-015 (antibody, human IgG4 S228P, kappa, V domains shown)
VH: B29 VH
VL: B29 VL with S43A, Q45K, V48I, S85T
notes: Humanized IgG4 (S228P)/kappa
B38: h1799-008 (antibody, human IgG4 S228P, kappa)
heavy: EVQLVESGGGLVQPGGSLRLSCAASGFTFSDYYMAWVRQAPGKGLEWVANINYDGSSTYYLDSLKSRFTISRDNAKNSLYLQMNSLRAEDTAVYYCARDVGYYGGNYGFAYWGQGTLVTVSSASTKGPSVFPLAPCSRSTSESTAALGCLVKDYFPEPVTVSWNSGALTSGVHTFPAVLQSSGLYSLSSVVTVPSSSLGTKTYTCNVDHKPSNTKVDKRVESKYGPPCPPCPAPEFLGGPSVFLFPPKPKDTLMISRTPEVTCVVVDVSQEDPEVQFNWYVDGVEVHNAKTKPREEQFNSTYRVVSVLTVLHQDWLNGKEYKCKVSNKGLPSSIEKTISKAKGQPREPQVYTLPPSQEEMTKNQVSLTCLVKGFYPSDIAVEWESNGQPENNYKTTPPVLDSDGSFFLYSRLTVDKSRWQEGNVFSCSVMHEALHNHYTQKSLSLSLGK
light: B14 light with A43S, K45Q, I48V
notes: Humanized IgG4 (S228P)/kappa

molecular target: T1, Extracellular domain of TIM-3 with Flag and His tag (human); assay: Biacore SPR; antibody as stationary phase, 'TIM-3-His' as mobile phase
T1 construct: also called TIM-3-Flag-His

Binder	Kd
B1	0.569 nM
B2	0.64 nM
B3	0.579 nM
B4	0.675 nM
B5	0.581 nM
B6	0.653 nM
B7	0.64 nM
B8	0.597 nM
B9	0.472 nM
B10	0.64 nM
B11	0.653 nM

molecular target: T1, Extracellular domain of TIM-3 with Flag …; assay: Biacore SPR; antibody captured by anti-human capture antibody on CM5, TIM-3-Flag-His in mobile phase
Source text: The reaction signal was detected in real-time using Biacore instrument to obtain the association and dissociation curves. […] In the experiment, after each cycle of dissociation was finished, the biosensor chip was washed with the regenerative solution in the human capture antibody Kit.

Binder	Kd
B12	2.25 nM
B13	1.6 nM
B14	1.78 nM
B15	1.76 nM
B16	1.39 nM

molecular target: T2, human TIM-3 full length, overexpressed on CHO-S cells (human, UniProt Q8TDQ0 22-301); assay: cell-based ELISA on CHO-S cells overexpressing human TIM-3
T2 construct: cells fixed with 4% PFA on plates; also called HAVCR2; Tim-3-overexpressing CHO-S cells
Procedure: (§1) The binding activity of anti-TIM-3 antibody to CHO-S cells overexpressing human TIM-3 is detected via a binding assay. […] TIM-3-overexpressing cells were immobilized on a 96-well plate. After the addition of the antibody, signal strength was used to determine the binding activity of the antibody to Tim-3-overexpressing CHO-S cells.
(§2) The cells were inoculated on a 96-well plate with 4E5/ml density, 100 μg/well, and cultured overnight. Supernatant was discarded and the plate was washed three times with PBS. 100 μl/well of 4% PFA was added into each well, and the plate was fixed at room temperature for 30 minutes. The plate was washed three times with PBS. The liquid was discarded, and 200 μl of blocking solution (5% skim milk (Guangming skim milk powder) diluted with PBS) was added to each well. The plate was incubated at 37° C. for 2.5 h. Then the blocking solution was discarded, and the plate was washed 5 times with PBST buffer (pH 7.4 PBS containing 0.05% Tween-20). 50 μl/well of various concentrations of antibodies to be tested (antibody via hybridoma purification or humanized antibody), diluted with sample buffer, were added into each well, and incubated at 37° C. for 1 h. […] The plate was washed 6 times with PBST, and 100 μl/well TMB chromogenic substrates (KPL, Cat, No., 52-00-03) was added to each well. The plate was incubated at room temperature for 5-15 min. Reaction was stopped by the addition of 50 μl of 1 M H₂SO₄ to each well.

Binder	EC50
B1	0.515 nM
B2	0.673 nM
B3	0.512 nM
B4	0.603 nM
B5	0.717 nM
B6	0.629 nM
B7	0.317 nM
B8	0.53 nM
B9	0.438 nM
B10	0.637 nM
B11	0.667 nM

molecular target: T2, human TIM-3 full length, overexpressed …; assay: cell-based ELISA on fixed CHO-S cells overexpressing human TIM-3;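 also: antibody binding at serial dilutions to PFA-fixed cells for 1 h at 37 °C, read as TMB colour signal after acid stop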
Procedure: as §1, §2

Binder	EC50
B17	0.602 nM
B18	0.188 nM
B19	0.124 nM
B20	0.735 nM
B21	0.199 nM
B22	0.265 nM
B12	0.069 nM
B13	0.058 nM
B23	0.221 nM
B24	2.42 nM
B25	0.105 nM
B26	0.087 nM
B14	0.063 nM
B27	0.158 nM
B28	0.109 nM
B29	0.119 nM
B30	0.117 nM
B31	0.076 nM
B32	0.116 nM
B33	0.139 nM
B34	0.194 nM
B35	0.215 nM
B36	0.114 nM
B37	0.188 nM
B38	0.067 nM
B15	0.08 nM
B16	0.166 nM
